# Experimental data from patent US20240409635A1 (VIBRANT PHARMA, published 2024).
# Key:
# [1] = molecular target: T1, keyhole limpet haemocyanin; assay: ELISA, KLH coated, 100 nM antibody
# T1 construct: Bought reagent, coated at 5 ug/mL; also called KLH
# Description: (§1) The experimental steps are as follows [0420] […] (4) 50 μl anti-human IgG-HRP conjugate (Sigma, AP113P, 1:8000 dilution) was added to each well; the plate was incubated for 1 h at room temperature and washed 6 times with 0.05% PBST; [0424] (5) 50 μl of TMB chromogenic solution (Biopanda, TMB-S-001) was added to each well and incubated at room temperature for 10-15 minutes for color development; [0425] (6) 50 μl of 1M HCl was added to each well to stop the color development, and the absorbance at 450 nm was measured using a microplate reader (Biotek, SYNERGY LX); Data analysis: If the ratio between the absorbance of the antibody and the absorbance of the blank control PBS is ≥3, there is too much non-specific binding.
# Insulin = molecular target: T2, Insulin; assay: ELISA, insulin coated, 100 nM antibody
# T2 construct: Bought reagent, coated at 5 ug/mL
# Description: as §1
# [2] = molecular target: T3, recombinant human CD3ε/δ protein (human, UniProt P07766 23-126; P04234 22-105); assay: BLI, antibody on AHC sensor
# T3 construct: Bought heterodimer
# Description: (§2) Antibodies were first captured onto an anti-human IgG Fc coated AHC biosensor (Anti-hIgG Fc, Sartorius, 18-5060). Antibodies were diluted to 5 μg/mL and 1.5 nm protein was coupled to the AHC sensor surface in 0.02% PBST.
# (§3) After the sensor captures the antibodies, it is used to bind and dissociate with different concentrations of analytes to obtain the KD value of the interaction. The experimental parameters are as follows: Baseline1: 60 s, Loading: 240 s, Baseline2: 180 s, Association: 240 s, Dissociation: 600 s, High sensitivity kinetics: 2 Hz. Kinetic constants were derived based on the rate equation for 1:1 Langmuir binding to obtain equilibrium dissociation constants (KD). The Data Analysis HT 12 software (Sartorius, 50-5029) was used to simultaneously fit binding and dissociation curves to calculate Kₒₙ and Koff. The affinity KD was calculated based on the below formula: KD=Koff/Kₒₙ.
# [3] = molecular target: T4, recombinant human EGFR protein (human, UniProt P00533 25-645); assay: BLI, antibody on AHC sensor
# T4 construct: Bought
# Description: as §2, §3
# T3 sequence (P07766 23-126, stated change not applied, chain 1 of 2): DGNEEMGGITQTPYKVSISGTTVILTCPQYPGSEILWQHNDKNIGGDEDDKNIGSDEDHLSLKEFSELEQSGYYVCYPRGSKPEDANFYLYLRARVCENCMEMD
# T3 sequence (P04234 22-105, stated change not applied, chain 2 of 2): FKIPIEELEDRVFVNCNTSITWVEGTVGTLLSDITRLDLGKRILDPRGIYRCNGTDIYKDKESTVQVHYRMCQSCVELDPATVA
binder,measurement,setting,value
"EGFR-BsAb bispecific control antibody (TA1-Fab anti-CD3 x EGFR VHH) (bispecific antibody, human IgG4 S228P, kappa, F234A L235A, IgG4) heavy: EVKLLESGGGLVQPKGSLKLSCAASGFTFNTYAMNWVRQAPGKGLEWVARIRSKYNNYATYYADSVKDRFTISRDDSQSILYLQMNNLKTEDTAMYYCVRHGNFGNSYVSWFAYWGQGTLVTVSSASTKGPSVFPLAPCSRSTSESTAALGCLVKDYFPEPVTVSWNSGALTSGVHTFPAVLQSSGLYSLSSVVTVPSSSLGTKTYTCNVDHKPSNTKVDKRVESKYGPPCPPCPAPEAAGGPSVFLFPPKPKDTLMISRTPEVTCVVVDVSQEDPEVQFNWYVDGVEVHNAKTKPREEQFNSTYRVVSVLTVLHQDWLNGKEYKCKVSNKGLPSSIEKTISKAKGQPREPQVYTLPPCQEEMTKNQVSLWCLVKGFYPSDIAVEWESNGQPENNYKTTPPVLDSDGSFFLYSRLTVDKSRWQEGNVFSCSVMHEALHNHYTQKSLSLSL QVQLQESGGGSVQAGGSLKLSCAASGRGFSRYAMGWFRQAPGQDREFVATISWTNSTDYADSVKGRFAISRDNAKNTAYLQMNSLKPEDTAVYYCAADKWASSTRSIDYDYWGQGIQVTVSSESKYGPPCPPCPAPEAAGGPSVFLFPPKPKDTLMISRTPEVTCVVVDVSQEDPEVQFNWYVDGVEVHNAKTKPREEQFNSTYRVVSVLTVLHQDWLNGKEYKCKVSNKGLPSSIEKTISKAKGQPREPQVCTLPPSQEEMTKNQVSLSCAVKGFYPSDIAVEWESNGQPENNYKTTPPVLDSDGSFFLVSRLTVDKSRWQEGNVFSCSVMHEALHNRFTQKSLSLSL light: QAVVTQESALTTSPGETVTLTCRSSTGAVTTSNYANWVQEKPDHLFTGLIGGTNKRAPGVPARFSGSLIGDKAALTITGAQTEDEAIYFCALWYSNLWVFGGGTKVEIKRTVAAPSVFIFPPSDEQLKSGTASVVCLLNNFYPREAKVQWKVDNALQSGNSQESVTEQDSKDSTYSLSSTLTLSKADYEKHKVYACEVTHQGLSSPVTKSFNRGEC",absorbance ratio to PBS blank,[1],0.5
same,absorbance ratio to PBS blank,Insulin,0.86
same,Kd,[2],5.51 nM
same,koff,[2],0.00302 s⁻¹
same,kon,[2],547000 M⁻¹ s⁻¹
same,Kd,[3],0.645 nM
same,koff,[3],0.000401 s⁻¹
same,kon,[3],622000 M⁻¹ s⁻¹
